Measurements taken from article PMC5566378, “The human IL-17A/F heterodimer: a two-faced cytokine with unique receptor recognition properties” (Scientific Reports, 2017).

T1: human IL-17RC extracellular domain (human, UniProt Q8NAC3-2 21-467)
T1 construct: human IL-17RC full-length extracellular domain, residues 21-467 of UniProt entry Q8NAC3-2, secreted with the CD33 signal peptide; numbers count on: isoform Q8NAC3-2; also called IL-17RC ECD; source: GnTI-deficient HEK293S, transient expression, purified (anti-APP antibody column, Resource-Q, Superdex-200 SEC)
T1 sequence (looked up): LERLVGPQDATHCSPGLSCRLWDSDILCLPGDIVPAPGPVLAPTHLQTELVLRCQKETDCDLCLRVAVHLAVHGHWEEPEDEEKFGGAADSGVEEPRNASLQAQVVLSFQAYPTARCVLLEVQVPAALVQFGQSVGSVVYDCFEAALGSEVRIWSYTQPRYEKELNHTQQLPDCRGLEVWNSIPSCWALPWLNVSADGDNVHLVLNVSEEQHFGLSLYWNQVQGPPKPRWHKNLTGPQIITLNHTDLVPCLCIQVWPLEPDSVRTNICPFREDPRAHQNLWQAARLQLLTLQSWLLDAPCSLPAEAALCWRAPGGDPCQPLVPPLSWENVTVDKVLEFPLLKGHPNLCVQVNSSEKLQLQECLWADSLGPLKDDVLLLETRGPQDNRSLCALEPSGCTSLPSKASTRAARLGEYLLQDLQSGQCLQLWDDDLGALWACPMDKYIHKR

T2: human IL-17RC extracellular domain (human, UniProt Q8NAC3-2 21-467)
T2 construct: human IL-17RC, full-length extracellular domain, residues 21-467 of UniProt Q8NAC3-2, cloned behind the CD33 signal peptide; numbers count on: isoform Q8NAC3-2; also called IL-17RC ECD; IL-17RC receptor
T2 sequence (looked up): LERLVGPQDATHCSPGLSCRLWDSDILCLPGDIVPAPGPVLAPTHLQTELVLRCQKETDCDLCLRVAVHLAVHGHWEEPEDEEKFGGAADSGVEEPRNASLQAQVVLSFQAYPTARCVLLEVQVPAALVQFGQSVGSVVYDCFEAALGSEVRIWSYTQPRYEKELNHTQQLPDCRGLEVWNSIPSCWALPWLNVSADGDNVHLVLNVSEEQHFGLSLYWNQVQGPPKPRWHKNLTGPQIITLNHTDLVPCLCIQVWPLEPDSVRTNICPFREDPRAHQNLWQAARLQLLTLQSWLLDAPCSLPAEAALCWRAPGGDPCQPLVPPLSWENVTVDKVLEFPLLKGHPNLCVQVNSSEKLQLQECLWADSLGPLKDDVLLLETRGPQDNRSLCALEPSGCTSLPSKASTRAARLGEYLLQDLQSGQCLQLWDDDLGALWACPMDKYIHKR


Experiments:
Conditions in all cases: both partners purified
[1] = target: T1, human IL-17RC extracellular domain; experiment: SPR; Biacore 8K; IL-17RC ECD immobilised (about 500 RU) by amine coupling on a CM4 chip; cytokines as analytes in PBS pH 7.4, 3 mM EDTA, 0.05% Tween20; 20 °C, 30 µl/min; 1:1 Langmuir model, steady-state analysis for variants of weaker affinity; mean of at least five independent experiments
[2] = target: T3, human IL-17RA extracellular domain (human, UniProt Q96F46 33-320, biotin on the Avi-tag (E. coli BirA), for the SPR measurements only); experiment: SPR; Biacore 8K; biotinylated IL-17RA ECD immobilised on a streptavidin chip (about 500 RU); cytokines as analytes in PBS pH 7.4, 3 mM EDTA, 0.05% Tween20; 20 °C, 30 µl/min; 1:1 Langmuir model or steady-state analysis
T3 construct: human IL-17RA, full-length extracellular domain, residues 33-320 of UniProt Q96F46, cloned behind the CD33 signal peptide; The same construct was used unbiotinylated for the complex and its crystals (treated with PNGaseF and Endoglycosidase H) and biotinylated for SPR; also called IL-17RA ECD; IL-17RA receptor; source: GnTI-deficient HEK293S, transient expression, secreted, purified (anti-APP …)

[3] = target: T2, human IL-17RC extracellular domain; experiment: SPR; Biacore 8K; IL-17RC ECD amine-coupled on a CM4 chip (about 500 RU); cytokines as analytes in PBS pH 7.4, 3 mM EDTA, 0.05% Tween20; 20 °C, 30 µl/min; 1:1 Langmuir model or steady-state analysis
[4] = target: T4, human IL-17RA extracellular domain (human, UniProt Q96F46 33-320, biotin on the Avi-tag (BirA) for SPR measurements); experiment: SPR; Biacore 8K; biotinylated IL-17RA ECD immobilised (about 500 RU) on a streptavidin SA chip; cytokines as analytes in PBS pH 7.4, 3 mM EDTA, 0.05% Tween20; 20 °C, 30 µl/min; 1:1 Langmuir model, steady-state analysis for variants of weaker affinity; mean of at least five independent experiments
T4 construct: human IL-17RA full-length extracellular domain, residues 33-320 of UniProt Q96F46, secreted with the CD33 signal peptide; The construct is described 'for crystallization'; the SPR sample is the same ECD biotinylated on its Avi-tag; In the crystal the complex was treated with PNGaseF and Endoglycosidase H and biotinylation is not mentioned; also called IL-17RA ECD; source: GnTI-deficient HEK293S, …

| Kd [1] | fold reduction in affinity against wild-type IL-17F [2] | fold reduction in binding affinity against wild-type IL-17F [3] | Kd [4] | Binder |
| --- | --- | --- | --- | --- |
| 4 nM | – | – | – | human IL-17F homodimer, wild type (ligand, UniProt Q96PD4 31-163, looked up, human IL-17F, residues 31-163 of UniProt Q96PD4, secreted with the CD33 signal peptide (P20138-1); also called IL-17F wt) RKIPKVGHTFFQKPESCPPVPGGSMKLDIGIINENQRVSMSRNIESRSTSPWNYTVTWDPNRYPSEVVQAQCRNLGCINAQGKEDISMNSVPIQQETLVVRRKHQGCSVSFQLEKVLVTVGCTCVTPVIHHVQ |
| – | > 5 fold | ≥ 200 fold | – | human IL-17F homodimer, Arg77 to alanine mutant (ligand, UniProt Q96PD4 31-163, looked up, human IL-17F, residues 31-163 of UniProt Q96PD4, cloned behind the CD33 signal peptide and the APP6-tag, R77A; also called IL-17F R77A; point mutant of the IL-17F homodimer; source: HEK293S, transient expression, secreted, purified) RKIPKVGHTFFQKPESCPPVPGGSMKLDIGIINENQRVSMSRNIESASTSPWNYTVTWDPNRYPSEVVQAQCRNLGCINAQGKEDISMNSVPIQQETLVVRRKHQGCSVSFQLEKVLVTVGCTCVTPVIHHVQ |
| 905 nM | – | – | 726 nM | human IL-17F homodimer, R77A (ligand, UniProt Q96PD4 31-163, looked up, human IL-17F, residues 31-163 of UniProt Q96PD4, secreted with the CD33 signal peptide, Arg77 to alanine; also called IL-17F R77A; source: HEK293S, transient expression, purified (as the wild type)) RKIPKVGHTFFQKPESCPPVPGGSMKLDIGIINENQRVSMSRNIESASTSPWNYTVTWDPNRYPSEVVQAQCRNLGCINAQGKEDISMNSVPIQQETLVVRRKHQGCSVSFQLEKVLVTVGCTCVTPVIHHVQ |
